Source: patent publication US20160109459A1, “Compositions And Methods For Heparan Sulfate As A Biomarker For Transplant Rejection” (Duke University, priority 2012, published 2016)

Target: T1, human TLR4 (Homo sapiens, UniProt O00206)
T1 construct: expressed in transfected cells; host or cells: HEK 293 (gift from Dr. Michael Fessler, NIEHS)
Experiment: IL-8 production by ELISA in HEK TLR4-MD2-CD14 cells
Type: cell-based
Conditions: HS pre-treated with heparanase
Protocol: HEK cell lines stably expressing CD14 and MD2 alone (HEK MD2-CD14), or co-expressed with human TLR2 (HEK TLR2-MD2-CD14) or human TLR4 (HEK TLR4-MD2-CD14) were transfected with a plasmid encoding firefly luciferase (F) under control of the NF-κB promoter along with a plasmid expressing Renilla luciferase (R) under control of the thymidine kinase promoter as a transfection control. Cell lines were cultured for 6 hours with media alone, LPS (100 ng/mL), HS (100 μg/mL), or Pam3CSK4 (2 μg/mL). […] FIG. 5B is a graph showing results supernatants analyzed for IL-8 production by ELISA. […] Experiments were performed in triplicate or quadruplicate. Results are representative of two to three independent experiments.
HEK 293 cell lines co-expressing human CD14, MD2 and TLR4 or TLR2 were a kind gift from Dr. Michael Fessler (NIEHS, Research Triangle Park, N.C., USA). […]
Thus, to determine whether if TLR4 was sufficient for HS activity, the ability of HS to activate human epithelial kidney (HEK) cell lines stably transfected to express human TLR4 or human TLR2 in addition to the co-receptors CD14 and MD2 was tested. […] The ratio of luminescence produced by firefly luciferase to Renilla luciferase (F/R) was then measured in response to media alone, LPS, HS, and Pam3CSK4. The production of IL-8, which is downstream of NF-κB activation, by ELISA was also measured. […]

T1 sequence (O00206 24-839): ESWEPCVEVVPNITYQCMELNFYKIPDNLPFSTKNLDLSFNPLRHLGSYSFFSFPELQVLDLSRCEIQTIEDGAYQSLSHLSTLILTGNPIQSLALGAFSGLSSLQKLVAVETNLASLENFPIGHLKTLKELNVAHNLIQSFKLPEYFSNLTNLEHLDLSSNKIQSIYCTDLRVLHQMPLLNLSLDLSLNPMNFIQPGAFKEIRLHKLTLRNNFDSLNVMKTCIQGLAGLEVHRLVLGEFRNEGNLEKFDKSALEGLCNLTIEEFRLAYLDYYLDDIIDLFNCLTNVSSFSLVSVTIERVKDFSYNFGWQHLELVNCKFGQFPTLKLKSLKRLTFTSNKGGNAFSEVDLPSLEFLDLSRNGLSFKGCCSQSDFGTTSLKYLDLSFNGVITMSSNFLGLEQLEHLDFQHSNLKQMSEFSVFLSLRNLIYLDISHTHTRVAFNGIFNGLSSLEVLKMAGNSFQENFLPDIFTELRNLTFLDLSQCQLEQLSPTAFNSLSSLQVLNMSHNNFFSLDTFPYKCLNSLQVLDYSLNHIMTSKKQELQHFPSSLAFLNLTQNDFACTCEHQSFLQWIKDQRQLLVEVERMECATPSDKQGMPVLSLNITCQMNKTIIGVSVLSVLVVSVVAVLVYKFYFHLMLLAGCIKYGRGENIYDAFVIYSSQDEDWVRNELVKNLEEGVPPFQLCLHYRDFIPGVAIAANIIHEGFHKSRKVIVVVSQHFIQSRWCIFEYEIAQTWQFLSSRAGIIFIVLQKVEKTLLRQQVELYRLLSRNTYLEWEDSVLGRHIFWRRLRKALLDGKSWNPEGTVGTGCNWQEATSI
T1 sequence (Q9Y6Y9 17-160 partner limits assumed): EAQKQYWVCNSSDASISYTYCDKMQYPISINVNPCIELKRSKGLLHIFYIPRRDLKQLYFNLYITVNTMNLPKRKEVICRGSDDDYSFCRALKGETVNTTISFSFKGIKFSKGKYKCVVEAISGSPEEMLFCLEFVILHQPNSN

effect of pre-treatment on HS stimulation of IL-8 expression: significantly reduced
B1: Heparanase: heparinase III from Flavobacterium heparinum (Sigma), enzyme that degrades heparan sulfate (protein, UniProt Q59289 25-659, looked up)
Heparin-sulfate lyase: QSSSITRKDFDHINLEYSGLEKVNKAVAAGNYDDAAKALLAYYREKSKAREPDFSNAEKPADIRQPIDKVTREMADKALVHQFQPHKGYGYFDYGKDINWQMWPVKDNEVRWQLHRVKWWQAMALVYHATGDEKYAREWVYQYSDWARKNPLGLSQDNDKFVWRPLEVSDRVQSLPPTFSLFVNSPAFTPAFLMEFLNSYHQQADYLSTHYAEQGNHRLFEAQRNLFAGVSFPEFKDSPRWRQTGISVLNTEIKKQVYADGMQFELSPIYHVAAIDIFLKAYGSAKRVNLEKEFPQSYVQTVENMIMALISISLPDYNTPMFGDSWITDKNFRMAQFASWARVFPANQAIKYFATDGKQGKAPNFLSKALSNAGFYTFRSGWDKNATVMVLKASPPGEFHAQPDNGTFELFIKGRNFTPDAGVFVYSGDEAIMKLRNWYRQTRIHSTLTLDNQNMVITKARQNKWETGNNLDVLTYTNPSYPNLDHQRSVLFINKKYFLVIDRAIGEATGNLGVHWQLKEDSNPVFDKTKNRVYTTYRDGNNLMIQSLNADRTSLNEEEGKVSYVYNKELKRPAFVFEKPKKNAGTQNFVSIVYPYDGQKAPEISIRENKGNDFEKGKLNLTLTINGKQQLVLVP
